Laboratory results taken from the supplement of paper PMC10724198.
± gives the standard deviation of the averaged measurements.

Test system: Saccharomyces cerevisiae
Test: protein stability index of tFT-peptide fusion (C-terminal peptide) (PSI (0-1 scale)); higher = more stable (slower turnover)
Conditions: genetic background: wild type; temperature: 30 C
Experimental: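 Multiplexed protein stability (MPS) profiling in S. cerevisiae. Random 12-aa peptides (tFT-X12 library) are fused to the C-terminus of a sfGFP-mCherry tandem fluorescent timer, after mCherry and a GGGS linker. Cells are FACS-sorted into 8 mCherry/sfGFP bins and deep-sequenced. The protein stability index (PSI) is the read-weighted bin average, scaled from 0 (unstable) to 1 (stable). Only peptides with >10 reads are reported; cells were grown at 30 °C in SC-His with glucose.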
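Further: PSI is a weighted mean of sequencing reads over stability bins, variants kept only with over 10 reads, mCherry proximal and sfGFP distal, peptide attached via GGGS linker.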

Point of comparison: GLVDVYWVCIIV, protein stability index 0.6069 ± 0.0046. Against it:
- GGSWGVGGVFVR — higher, 0.658 ± 0.03
- GGTGFMHSVDYG — higher, 0.644 ± 0.0089
- GGTRCQYKNLFG — higher, 0.683 ± 0.029
- GGTSCLLSTAGD — within error, 0.653 ± 0.079
- GGVEWEQQGRKE — higher, 0.706 ± 0.072
- GGVGGGVEPCFV — higher, 0.66 ± 0.028
- GGVGGRGIGFPR — higher, 0.684 ± 0.055
- GGVLGPEVCVGG — higher, 0.693 ± 0.047
- GGVRGGAAEGAV — higher, 0.751 ± 0.076
- GGVRGRRLLGGR — higher, 0.7 ± 0.046
- GGVRGVRGRGVG — within error, 0.639 ± 0.049
- GGVRSLLWAVVW — lower, 0.583 ± 0.009
- GGVSVPSERFRS — higher, 0.788 ± 0.044
- GGVWFSCSSAFS — higher, 0.871 ± 0.075
- GGWDLIASVREF — higher, 0.649 ± 0.017
- GGWGGRGQGWYR — higher, 0.6673 ± 0.0055
- GGWGRRRLDGGR — higher, 0.7221 ± 0.0064
- GGWWWAVGFGGL — higher, 0.66 ± 0.017
- GGYGEGAVLFVG — lower, 0.58 ± 0.012
- GHAITSALITHR — higher, 0.652 ± 0.024
- GHKIIPPSTRFR — within error, 0.626 ± 0.063
- GHSRSTFPWLVI — higher, 0.79 ± 0.095
- GIAACASSGLAV — higher, 0.657 ± 0.034
- GIENTYVVIFID — within error, 0.598 ± 0.068
- GIGEGRDGFVVV — higher, 0.67 ± 0.058
- GIGVVVLGGCTR — higher, 0.706 ± 0.056
- GIHLAPVCASSP — higher, 0.71 ± 0.035
- GIIQKAQTSIKI — lower, 0.592 ± 0.0067
- GIKAIEKGDIHL — higher, 0.699 ± 0.021
- GILFFPSGGISP — higher, 0.805 ± 0.12
- GILRSDAVWSFI — higher, 0.699 ± 0.042
- GILSPSSLVSSL — higher, 0.69 ± 0.057
- GITHSFLRSSVV — higher, 0.689 ± 0.054
- GITWSYNKSISH — higher, 0.722 ± 0.048
- GIVRGCGGGGEE — higher, 0.6922 ± 0.0049
- GIVVEELIFCGR — higher, 0.63 ± 0.0087
- GIYFARRVVDFG — higher, 0.65 ± 0.011
- GKDSSTASNRYT — higher, 0.688 ± 0.027
- GKEIHREIIVTV — within error, 0.618 ± 0.014
- GKKEGREAGDRG — within error, 0.691 ± 0.092
- GKKKKRIDTKYK — within error, 0.713 ± 0.15
- GKKRTGRGESAK — higher, 0.693 ± 0.062
- GKLQFAEYYNGI — higher, 0.66 ± 0.0081
- GKNKYIYKKKRH — higher, 0.792 ± 0.072
- GKRKREEDEEKK — within error, 0.686 ± 0.097
- GKRRTIQPGQKM — higher, 0.698 ± 0.032
- GKSRRQGCDPRR — higher, 0.659 ± 0.035
- GKTRLRAKLTYN — within error, 0.62 ± 0.08
- GLAASAFAVEEV — higher, 0.711 ± 0.099
- GLALSPFPTLSL — higher, 0.64677 ± 0.00031
- GLARPFVGFPHL — higher, 0.7352 ± 0.0028
- GLCGFLLIETLL — higher, 0.64 ± 0.0085
- GLDSGVAGRRGV — higher, 0.662 ± 0.0087
- GLEFTAFRLRFL — within error, 0.667 ± 0.068
- GLERAVGWAVCG — within error, 0.622 ± 0.015
- GLERGRLGSGCG — higher, 0.652 ± 0.0075
- GLFRESVLGSVW — higher, 0.708 ± 0.013
- GLFSGRCLCGGG — higher, 0.688 ± 0.025
- GLFSRGKLIALS — within error, 0.571 ± 0.099
- GLGATSGGLRCG — higher, 0.654 ± 0.014
- GLGAWRGAGRVG — within error, 0.649 ± 0.053
- GLGGAWACGGGR — within error, 0.719 ± 0.11
- GLGKWGGGGDER — higher, 0.723 ± 0.012
- GLGLGGRGMRVV — higher, 0.687 ± 0.018
- GLGQGVGGPWAV — higher, 0.678 ± 0.041
- GLGQHPSLMSPP — higher, 0.706 ± 0.028
- GLIGLVHFWRGT — higher, 0.655 ± 0.035
- GLKKRTIILSVK — lower, 0.532 ± 0.0056
- GLPFRYASYLFS — higher, 0.704 ± 0.031
- GLPLPTPLLPSP — higher, 0.723 ± 0.01
- GLPWRRVGGGSG — higher, 0.699 ± 0.048
- GLRENIFTDKKN — higher, 0.728 ± 0.06
- GLRHCLLHRTCQ — within error, 0.599 ± 0.0079
- GLRLFWFRRVRA — lower, 0.537 ± 0.012
- GLRSVQISHIRQ — higher, 0.694 ± 0.012
- GLRYGLALARPF — higher, 0.65 ± 0.034
- GLSFITAGGLVF — higher, 0.688 ± 0.052
- GLSLSLLSSLFV — higher, 0.71 ± 0.02
- GLVLILRLFSRG — lower, 0.494 ± 0.056
- GLWSWFLCYEFY — higher, 0.657 ± 0.02
- GLYDGSRLVKLE — higher, 0.736 ± 0.039
- GMFVCGVGVVGG — within error, 0.704 ± 0.19
- GMRGGGRAQDAR — higher, 0.6609 ± 0.002
- GMRRGGGGCRGW — higher, 0.716 ± 0.033
- GMSRVSDRRWGS — higher, 0.681 ± 0.013
- GMWVGGRGVVGV — higher, 0.627 ± 0.0076
- GNCGLLSLYTLF — lower, 0.503 ± 0.023
- GNCPGYSELGRF — higher, 0.6941 ± 0.0044
- GNDICLVGARVV — higher, 0.6696 ± 0.0059
- GNFYFSGSGFFI — higher, 0.709 ± 0.031
- GNGVNLEYDKRK — higher, 0.721 ± 0.059
- GNKKEKYNRTSS — higher, 0.683 ± 0.0078
- GNLTPHSERLPP — higher, 0.658 ± 0.0084
- GNLVKTLERDKP — higher, 0.736 ± 0.034
- GNNLCILNERFP — higher, 0.763 ± 0.019
- GPCRVSLSFFFF — within error, 0.577 ± 0.06
- GPFHSGSASRSA — within error, 0.653 ± 0.047
- GPGAVTALGYGR — higher, 0.668 ± 0.015
- GPGLSPPYPSPA — higher, 0.704 ± 0.029
- GPGSFAPLPPRS — higher, 0.684 ± 0.033
- GPLPYISLSFSP — higher, 0.7304 ± 0.0028
- GPPPRSPAFRSL — within error, 0.695 ± 0.092
- GPPPRYLPAFPA — higher, 0.7057 ± 0.0042
- GPPSRPPRRTAP — within error, 0.707 ± 0.14
- GPRDPSCLLPPL — higher, 0.653 ± 0.013
- GPRRVAVAGETS — higher, 0.715 ± 0.037
- GPTPHPVPTTCS — higher, 0.69 ± 0.016
- GPVQWSLLGGSW — higher, 0.65 ± 0.012
- GPVYPGSRPAFT — higher, 0.708 ± 0.092
- GPWGGSGGGGVG — within error, 0.628 ± 0.041
- GQMDGGMGGKVI — within error, 0.582 ± 0.062
- GQNGFVDGGCVL — higher, 0.677 ± 0.0081
- GQQETIGLRAHI — higher, 0.681 ± 0.025
- GQQLSLRGVVHW — higher, 0.844 ± 0.2
- GQSQSGIFRTIF — higher, 0.72 ± 0.024
- GQSVYRRWGCLK — higher, 0.68 ± 0.01
- GQVATAGDIRVR — higher, 0.69065 ± 0.00026
- GQYEPEWKRLYC — higher, 0.64 ± 0.011
- GRADWERGMGLV — higher, 0.664 ± 0.021
- GRAGEKRGGRRL — higher, 0.66 ± 0.013
- GRANLAPVPPPR — higher, 0.685 ± 0.013
- GRASAGVLLCDG — higher, 0.659 ± 0.028
- GRCQSPRASPSG — lower, 0.584 ± 0.013
- GRDTVARSEGDR — higher, 0.712 ± 0.037
- GRERASHRGPRN — higher, 0.648 ± 0.0066
- GRFGGLLRKVLG — within error, 0.678 ± 0.15
- GRFGIGLYLCFL — within error, 0.597 ± 0.094
- GRGGAGFRGGIE — higher, 0.6707 ± 0.0044
- GRGRVGGGGVAV — higher, 0.682 ± 0.042
- GRGTGGKGRRGS — higher, 0.693 ± 0.015
- GRGVFPRRPYWV — higher, 0.724 ± 0.0086
- GRGVGWRACGVV — higher, 0.685 ± 0.018
- GRIAGGGGGWRW — within error, 0.648 ± 0.064
- GRILGEGWVCVV — within error, 0.663 ± 0.087
- GRKAEVRVLHFR — higher, 0.6447 ± 0.0055
- GRKKLQKKIEEQ — higher, 0.6783 ± 0.0032
- GRLGRHFSVKFL — higher, 0.6584 ± 0.0052
- GRLGRMWRCDPR — higher, 0.658 ± 0.032
- GRLWVGGSVGGV — higher, 0.669 ± 0.012
- GRPRERWGVGVV — higher, 0.6865 ± 0.0023
- GRQLSTSRLRSS — higher, 0.674 ± 0.025
- GRRAWWQQPDDS — higher, 0.774 ± 0.099
- GRRDARTEDVRE — higher, 0.688 ± 0.0049
- GRRFWFSNHYNC — within error, 0.628 ± 0.091
- GRRKKKNRDKMK — higher, 0.6872 ± 0.004
- GRRLSDTSIFSS — within error, 0.679 ± 0.087
- GRRRCGGGGEVC — within error, 0.66 ± 0.064
- GRRRVSTAPRTT — higher, 0.739 ± 0.056
- GRSFRQWRDSGS — higher, 0.718 ± 0.066
- GRSGACGWVGFG — higher, 0.7238 ± 0.0013
- GRSGGEGGGEEE — higher, 0.681 ± 0.029
- GRSHIQPCQDII — higher, 0.75 ± 0.078
- GRSIKGLLYQSL — higher, 0.681 ± 0.025
- GRSKKGTISMNS — higher, 0.67 ± 0.0077
- GRTAEKGHPPRG — higher, 0.7 ± 0.073
- GRTGRSVGTGVR — higher, 0.662 ± 0.025
- GRTSTVRSLVFT — higher, 0.666 ± 0.026
- GRTYWDCYFPRP — higher, 0.778 ± 0.061
- GRVRGRGEGPVA — higher, 0.675 ± 0.049
- GRWFGGRGVGEG — higher, 0.635 ± 0.013
- GRWGVMKGEEDV — higher, 0.737 ± 0.032
- GRWSDSSVVTLG — higher, 0.679 ± 0.018
- GRYDARNYIRGK — within error, 0.745 ± 0.14
- GRYGPTIPRGEP — higher, 0.696 ± 0.017
- GSAGGGLLCGCP — higher, 0.657 ± 0.008
- GSAVLFEFTLKM — within error, 0.651 ± 0.053
- GSDIIGSRDGWL — higher, 0.67 ± 0.039
- GSFGFGVTVVFW — lower, 0.5563 ± 0.0021
- GSGAFSLVSSYF — higher, 0.656 ± 0.017
- GSGALGAGRASR — higher, 0.723 ± 0.017
- GSGRVVGSWSVL — higher, 0.661 ± 0.045
- GSGVFEASAWGA — higher, 0.679 ± 0.0069
- GSGVSDWRCFEG — within error, 0.627 ± 0.071
- GSGVVVEGFLPD — higher, 0.65 ± 0.021
- GSGWRLLLGLVR — lower, 0.5731 ± 0.0022
- GSIWVVGGGQGV — higher, 0.731 ± 0.048
- GSLWGVFFRGLL — within error, 0.647 ± 0.037
- GSMWCLTPSAGL — higher, 0.7 ± 0.034
- GSQCPVLEQQRD — higher, 0.655 ± 0.018
- GSRALYCIVPRF — within error, 0.661 ± 0.053
- GSRVEVGLGVRC — higher, 0.712 ± 0.027
- GSSAPSYTIGPE — higher, 0.682 ± 0.017
- GSSAVGGGGVWW — higher, 0.819 ± 0.1
- GSSVGVAGLRGR — higher, 0.656 ± 0.029
- GSSVSSVWGGVG — within error, 0.629 ± 0.022
- GSTSWAWITLPH — higher, 0.747 ± 0.0077
- GSVGSFIVVVHF — lower, 0.552 ± 0.013
- GSVMDMTRGGVS — within error, 0.646 ± 0.097
- GSVSLLASLMCS — lower, 0.55596 ± 0.00023
- GSWGRPAGFSRR — higher, 0.651 ± 0.028
- GSWGVGLGKVHW — higher, 0.752 ± 0.022
- GTALLSGGVLVI — within error, 0.689 ± 0.11
- GTATINQISSPQ — higher, 0.673 ± 0.028
- GTEFIIDIQIFV — lower, 0.547 ± 0.02
- GTETFHDASIGI — higher, 0.653 ± 0.016
